# Reference: the supplement of paper PMC7877785
# ± gives the uncertainty stated by the source.
# Assay: self-splicing fitness, log relative to wild type (ln ratio); higher = more splicing; Tetrahymena group I intron in knt gene, E. coli kanamycin selection, DiMSum; sequences stand for … in CUCUCU…GGAGGGAAAAGUUAUCAGGCAUGCACCUGGUAGCUAGUCUUUAAACCAAUAGAUUGCAUCGGUUUAAAAGGCAAGACCGUCAAAUUGCGGGAAAGGGGUCAACAGCCGUUCAGUACCAAGUCUCAGGGGAAACUUUGAGAUGGCCUUGCAAAGGGUAUGGUAAUAAGCUGACGGACAUGGUCCUAACCACGCAGCCAAGUCCUAAGUCAACAGAUCUUCUGUUGAUAUGGAUGCAGUUCACAGACUAAAUGUCGGUCGGGGAAGAUGUAUUCUUCUCAUAAGAUAUAGUCGGACCUCUCCUUAAUGGGAGCUAGCGGAUGAAGUGAUGCAACACUGGAGCCGCUGGGAACUAAUUUGUAUGCGAAAGUAUAUUGAUUAGUUUUGGAGUACUCGUGGUCG
# How it was run: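 Colonies from six replicate transformations of E. coli BL21(DE3) were pooled and amplicon-sequenced on an Illumina HiSeq 2500. The library placed an intron with all eight P1ex-region nucleotides randomised inside the knt kanamycin-resistance gene on pET-22b(+), and cells grew overnight at 37°C or 30°C on LB agar with or without 25 μg/mL kanamycin (plus 100 μg/mL carbenicillin, 50 μM IPTG, 0.2% rhamnose). Fitness is the DiMSum error-weighted combination of wild-type-normalised replicate fold changes, kanamycin versus none.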
Sequence,self-splicing fitness (ln) (30 °C),self-splicing fitness (ln) (37 °C)
UACAAGCAAUAUUACGUCCA,-1.06 ± 0.086,-0.297 ± 0.096
UACAAGCAAUAUUACGUCGA,-1.78 ± 0.08,-0.266 ± 0.082
UACAAGCAAUAUUACGUGUA,-3.33 ± 0.15,-2.69 ± 0.14
UACAAGCAAUAUUACGUGUG,-2.96 ± 0.11,-1.7 ± 0.1
UACAAGCAAUAUUACGUUAA,-3.35 ± 0.14,-1.74 ± 0.092
UACCAGCAAUAUUACGAAAA,-1.43 ± 0.17,-1.11 ± 0.13
UACCAGCAAUAUUACGAAAU,-2.64 ± 0.14,-1.26 ± 0.13
UACCAGCAAUAUUACGACUU,-0.799 ± 0.046,-0.301 ± 0.056
UACCAGCAAUAUUACGAUAA,-0.622 ± 0.093,-0.122 ± 0.1
UACCAGCAAUAUUACGCACU,-0.478 ± 0.063,0.393 ± 0.081
UACCAGCAAUAUUACGCAUC,-1.93 ± 0.095,-1.13 ± 0.095
UACCAGCAAUAUUACGCAUU,-2.42 ± 0.092,-0.373 ± 0.078
UACCAGCAAUAUUACGCCAG,-0.698 ± 0.08,-1.13 ± 0.1
UACCAGCAAUAUUACGCCCG,-0.0448 ± 0.11,-0.0962 ± 0.14
UACCAGCAAUAUUACGCCCU,-0.895 ± 0.12,0.138 ± 0.13
UACCAGCAAUAUUACGCGGA,-1.69 ± 0.079,-1.04 ± 0.082
UACCAGCAAUAUUACGCGUC,-2.06 ± 0.11,-1.13 ± 0.1
UACCAGCAAUAUUACGCUUU,-1.86 ± 0.093,-0.589 ± 0.1
UACCAGCAAUAUUACGGAGA,-1.13 ± 0.07,-0.596 ± 0.073
UACCAGCAAUAUUACGGGAU,-3.25 ± 0.16,-1.53 ± 0.12
UACCAGCAAUAUUACGGGGC,-4.11 ± 0.29,-2.72 ± 0.2
UACCAGCAAUAUUACGGUAU,-3.15 ± 0.16,-2.35 ± 0.18
UACCAGCAAUAUUACGGUCA,-0.0407 ± 0.07,0.125 ± 0.1
UACCAGCAAUAUUACGGUUC,-3.88 ± 0.18,-1.38 ± 0.14

Sequence,self-splicing fitness (ln) (30 °C),self-splicing fitness (ln) (37 °C)
UACCAGCAAUAUUACGUACU,-2.92 ± 0.17,-1.4 ± 0.15
UACCAGCAAUAUUACGUCUG,-3.46 ± 0.13,-2.46 ± 0.12
UACCAGCAAUAUUACGUUAC,-2.83 ± 0.3,-2.26 ± 0.21
UACCAGCAAUAUUACGUUGU,-3.56 ± 0.12,-2.66 ± 0.12
UACGAGCAAUAUUACGAAUC,-4.18 ± 0.34,-2.03 ± 0.39
UACGAGCAAUAUUACGAAUU,-4.2 ± 0.46,-3.21 ± 0.39
UACGAGCAAUAUUACGACAG,-2.49 ± 0.21,-0.615 ± 0.2
UACGAGCAAUAUUACGAGAC,-3.68 ± 0.26,-2.72 ± 0.27
UACGAGCAAUAUUACGAGCG,-1.12 ± 0.13,-0.262 ± 0.14
UACGAGCAAUAUUACGAGGG,-1.82 ± 0.12,-2.11 ± 0.27
UACGAGCAAUAUUACGAUAU,-2.39 ± 0.26,-3.25 ± 0.37
UACGAGCAAUAUUACGAUGA,-2.05 ± 0.19,-2.41 ± 0.2
UACGAGCAAUAUUACGAUUA,-1.13 ± 0.14,-0.74 ± 0.12
UACGAGCAAUAUUACGCAAU,-3.04 ± 0.17,-2.65 ± 0.18
UACGAGCAAUAUUACGCCCG,-3.1 ± 0.18,-2.02 ± 0.17
UACGAGCAAUAUUACGCGGU,-3.15 ± 0.2,-2.67 ± 0.26
UACGAGCAAUAUUACGCUGC,,-2.59 ± 0.41
UACGAGCAAUAUUACGGACA,-3.34 ± 0.26,-1.72 ± 0.17
UACGAGCAAUAUUACGGAGG,-2.06 ± 0.5,
UACGAGCAAUAUUACGGCAA,-1.96 ± 0.24,-0.476 ± 0.18
UACGAGCAAUAUUACGGCGU,-2.83 ± 0.33,-1.73 ± 0.29
UACGAGCAAUAUUACGGCUA,0.411 ± 0.22,0.683 ± 0.23
UACGAGCAAUAUUACGGGCC,,-3.34 ± 0.28
UACGAGCAAUAUUACGGGUU,-2.88 ± 0.14,-3.21 ± 0.23

Sequence,self-splicing fitness (ln) (30 °C),self-splicing fitness (ln) (37 °C)
UACGAGCAAUAUUACGGUAA,-1.82 ± 0.37,-0.747 ± 0.28
UACGAGCAAUAUUACGGUUA,-0.815 ± 0.11,0.152 ± 0.11
UACGAGCAAUAUUACGUAAC,-4.91 ± 0.41,-3.7 ± 0.3
UACGAGCAAUAUUACGUAGC,-3.67 ± 0.46,-1.01 ± 0.21
UACGAGCAAUAUUACGUCCA,-2.8 ± 0.27,-1.69 ± 0.27
UACGAGCAAUAUUACGUCCG,-2.29 ± 0.13,-1.25 ± 0.17
UACGAGCAAUAUUACGUGCA,-3.16 ± 0.19,-1.32 ± 0.13
UACGAGCAAUAUUACGUUUU,-3.66 ± 0.17,-2.4 ± 0.16
UACUAGCAAUAUUACGAAUU,-4.02 ± 0.42,-2.32 ± 0.25
UACUAGCAAUAUUACGACCG,-0.634 ± 0.13,0.287 ± 0.16
UACUAGCAAUAUUACGAGUC,-2.67 ± 0.31,-1.09 ± 0.14
UACUAGCAAUAUUACGAGUG,-1.07 ± 0.083,-0.536 ± 0.1
UACUAGCAAUAUUACGAGUU,-2.16 ± 0.11,-0.685 ± 0.1
UACUAGCAAUAUUACGCACC,-1.86 ± 0.2,-1.22 ± 0.26
UACUAGCAAUAUUACGCACU,-0.822 ± 0.068,0.229 ± 0.079
UACUAGCAAUAUUACGCAUC,-2.36 ± 0.14,-1.53 ± 0.18
UACUAGCAAUAUUACGCCUG,-0.00481 ± 0.11,1.03 ± 0.14
UACUAGCAAUAUUACGCGUU,-2.33 ± 0.11,-0.827 ± 0.1
UACUAGCAAUAUUACGGAAC,-3.78 ± 0.34,-3.03 ± 0.32
UACUAGCAAUAUUACGGGAG,-2.3 ± 0.11,-1.19 ± 0.1
UACUAGCAAUAUUACGGGCU,-3.52 ± 0.28,-2.87 ± 0.34
UACUAGCAAUAUUACGGUCU,-1.3 ± 0.094,-0.2 ± 0.13
UACUAGCAAUAUUACGUACC,-2.24 ± 0.17,-1.72 ± 0.23
UACUAGCAAUAUUACGUGGA,-3.03 ± 0.22,-2.47 ± 0.21

Sequence,self-splicing fitness (ln) (30 °C),self-splicing fitness (ln) (37 °C)
UACUAGCAAUAUUACGUUGU,-2.48 ± 0.17,-2.21 ± 0.17
UAGAAGCAAUAUUACGAAUU,-2.42 ± 0.46,-1.29 ± 0.27
UAGAAGCAAUAUUACGACAU,-1.569 ± 0.014,-0.76 ± 0.033
UAGAAGCAAUAUUACGACGU,-1.27 ± 0.1,-0.768 ± 0.098
UAGAAGCAAUAUUACGACUA,-0.222 ± 0.11,0.71 ± 0.14
UAGAAGCAAUAUUACGAGAC,-2.67 ± 0.35,-1.99 ± 0.3
UAGAAGCAAUAUUACGAUGG,-1.84 ± 0.097,-1.32 ± 0.12
UAGAAGCAAUAUUACGAUUA,-0.441 ± 0.08,-0.0749 ± 0.093
UAGAAGCAAUAUUACGCAGG,-2.7 ± 0.15,-2.19 ± 0.15
UAGAAGCAAUAUUACGCCCG,-0.762 ± 0.18,0.487 ± 0.23
UAGAAGCAAUAUUACGCCUG,-0.128 ± 0.091,0.251 ± 0.12
UAGAAGCAAUAUUACGCGGU,-4.94 ± 0.42,-2.37 ± 0.24
UAGAAGCAAUAUUACGCGUC,-2.53 ± 0.18,-1.56 ± 0.18
UAGAAGCAAUAUUACGCUAC,,-2.23 ± 0.31
UAGAAGCAAUAUUACGGAAA,-2.02 ± 0.17,-1.41 ± 0.24
UAGAAGCAAUAUUACGGCCA,-0.205 ± 0.077,-0.611 ± 0.081
UAGAAGCAAUAUUACGGGGU,-3.13 ± 0.17,-1.27 ± 0.22
UAGAAGCAAUAUUACGGUCA,-0.346 ± 0.095,-0.338 ± 0.11
UAGAAGCAAUAUUACGGUCC,-1.92 ± 0.22,-1.57 ± 0.2
UAGAAGCAAUAUUACGGUGU,-3.23 ± 0.14,-3.06 ± 0.15
UAGAAGCAAUAUUACGUAGC,-3.74 ± 0.26,-2.43 ± 0.23
UAGAAGCAAUAUUACGUGAG,-0.573 ± 0.06,-0.716 ± 0.079
UAGAAGCAAUAUUACGUUGG,-2.54 ± 0.14,-1.55 ± 0.14
UAGAAGCAAUAUUACGUUGU,-4.33 ± 0.18,-2.47 ± 0.14
